Values of other authors as cited in article PMC2446434.

Molecular target: CD200 (Mus musculus) (UniProt O54901)
Assay: SPR

UniProt O54901, sequence (O54901 31-232): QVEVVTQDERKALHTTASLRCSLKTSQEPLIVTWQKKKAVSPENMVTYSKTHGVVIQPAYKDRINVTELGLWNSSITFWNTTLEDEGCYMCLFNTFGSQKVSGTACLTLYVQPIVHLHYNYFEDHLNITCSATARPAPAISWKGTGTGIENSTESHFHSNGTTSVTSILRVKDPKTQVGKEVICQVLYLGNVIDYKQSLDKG

**Q.** Which Kd does the source give for CD200R (from UniProt Q9ES57) here?
**A.** 4 µM
